Experimental data published in patent US20200399385A1 (Bristol-Myers Squibb, published 2020).
Several values for one entry are separate records, joined by “and”; a condition that tells them apart may be missing. Equal values may be shown once.

T1: human OX40 on cells (human, UniProt P43489 29-277)
T1 sequence: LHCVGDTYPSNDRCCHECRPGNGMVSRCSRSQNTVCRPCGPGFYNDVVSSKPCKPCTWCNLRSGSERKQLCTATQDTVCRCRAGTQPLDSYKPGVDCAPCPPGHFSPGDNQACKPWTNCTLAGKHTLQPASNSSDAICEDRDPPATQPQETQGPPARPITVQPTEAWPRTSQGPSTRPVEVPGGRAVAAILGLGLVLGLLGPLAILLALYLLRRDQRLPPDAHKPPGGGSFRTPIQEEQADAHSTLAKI

T2: cynomolgus OX40 on cells (cynomolgus, UniProt P43489 29-277 (human entry))
T2 construct: also called cynoOX40-CHO
T2 chain: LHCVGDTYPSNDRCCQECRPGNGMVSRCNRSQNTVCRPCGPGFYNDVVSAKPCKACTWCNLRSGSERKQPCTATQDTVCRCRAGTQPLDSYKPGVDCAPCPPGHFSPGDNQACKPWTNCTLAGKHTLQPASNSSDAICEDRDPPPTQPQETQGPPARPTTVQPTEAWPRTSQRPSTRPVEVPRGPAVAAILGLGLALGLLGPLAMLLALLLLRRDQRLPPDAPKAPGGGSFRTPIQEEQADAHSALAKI

T3: his-tagged soluble human OX40 (huOX40-6xhis) (human, UniProt P43489 29-214)
T3 construct: made in-house; also called Human-OX40-6XHIS; hOX40; not shown: hexahistidine tag
T3 sequence: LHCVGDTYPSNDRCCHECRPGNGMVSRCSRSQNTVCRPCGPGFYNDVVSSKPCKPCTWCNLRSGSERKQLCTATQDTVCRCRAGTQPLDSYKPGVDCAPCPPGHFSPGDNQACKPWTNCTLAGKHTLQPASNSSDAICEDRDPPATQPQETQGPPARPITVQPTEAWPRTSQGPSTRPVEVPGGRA


Tests used:
human OX40 on cells [1] = target: T1, human OX40 on cells; test: cell-based or functional assay
human OX40 on cells [2] = target: T1, human OX40 on cells; test: cell-based or functional assay; remark: listed apart in the source
human OX40 on cells [3] = target: T1, human OX40 on cells; test: FACS, activated human T cells; mean ± SD, n=5
cynomolgus OX40 on cells [4] = target: T2, cynomolgus OX40 on cells; test: FACS, activated cyno T cells; mean ± SD, n=3
Experimental: (§1) Briefly, cells were activated for several days before the binding assay in order to induce OX40 expression. Total leukocytes were isolated from cynomolgus macaque peripheral blood by lysis of red blood cells using an ammonium chloride buffer. The leukocytes were then cultured for four to five days with in flasks pre-coated with anti-human CD3 plus anti-human CD28 antibodies that cross-react with cynomolgus macaque, in the presence of recombinant human IL-2, in order to expand and activate T cells. On the day of the assay, the cells were harvested and stained with a titration of each anti-OX40 antibody. Bound antibodies were detected with a fluorescently conjugated anti-human IgG polyclonal secondary antibody, and the cells were co-stained for CD4 and CD25 to detect activated CD4 T cells. The fluorescence intensity of the staining was measured using a FACSCanto II flow cytometer (Becton Dickinson). The geometric mean fluorescence intensity (GMFI) or median fluorescence intensity (MedFI) of anti-OX40 antibody staining was calculated for the CD4+CD25+ population (FACSDiva software). Dose-response curves were generated and EC50s for antibody binding were calculated using GraphPad Prism software.

[5] = target: T3, his-tagged soluble human OX40 …; test: SPR, mAb captured on anti-human CH1, OX40-6XHIS analyte, 1:1 fit
Experimental: The affinity of several OX40 antibodies for soluble human OX40 was tested by SPR analysis. […] Human-OX40-6XHIS antigen in either a single concentration of 400 nM or a 1:2 serial dilution from 400 nM was used. Experiments were carried out on BIACORE® T200 or BIACORE® 3000 SPR instruments. Data was fit to a 1:1 model.

human OX40 on cells [6] = target: T1, human OX40 on cells; test: FACS, activated human T cells; mean ± SD, n=3
Experimental: (§2) Cells were activated for several days before the binding assay in order to induce OX40 expression. Briefly, PBMCs were cultured for three or four days with magnetic beads coated with anti-human CD3 plus anti-human CD28, in the presence of recombinant human IL-2. On the day of the assay, the beads were removed and the cells stained with a titration of each anti-OX40 antibody. Bound antibodies were detected with a fluorescently conjugated anti-human IgG polyclonal secondary antibody, and the cells were co-stained for CD4 and CD25 to detect activated CD4 T cells. The fluorescence intensity of the staining was measured using a FACSCanto II flow cytometer (Becton Dickinson). The geometric mean fluorescence intensity (GMFI) or median fluorescence intensity (MedFI) of anti-OX40 antibody staining was calculated for the CD4+CD25+ population (FACSDiva software). EC₅₀s for antibody binding were calculated using GraphPad Prism software.

human OX40 on cells [7] = target: T1, human OX40 on cells; test: FACS competition on hOX40-293 cells against biotin-OX40.4 (spike biotOX.4 @ 0.4 ug/mL, streptavidin-APC); partial inhibition, FL4-MFI falls from about 12700 to about 8800 at about 130 nM; the table gives no unit, axis in nM
Experimental: (§3) This experiment was performed to test the cross-blocking properties of various anti-OX40 antibodies to assess binding specificities. […] Cells were washed and if necessary further incubated in the presence of streptavidin-APC conjugate under the same conditions. After the final wash, cells were analyzed on a FACSCanto flow cytometer (BD Bioscience, San Jose, Calif.). Mean fluorescence intensity (MFI) signal was proportional to bound conjugated antibody.

cynomolgus OX40 on cells [8] = target: T2, cynomolgus OX40 on cells; test: FACS, activated cyno T cells; mean ± SD, n=4
Experimental: as §1

cynomolgus OX40 on cells [9] = target: T2, cynomolgus OX40 on cells; test: FACS, activated cyno CD4 T cells
Experimental: as §1
The same experiment was performed with anti-OX40 antibodies with variable region substitutions.

human OX40 on cells [10] = target: T1, human OX40 on cells; test: FACS competition on hOX40-293 cells against biotin-OX40.5 (spike biotOX.5 @ 0.4 ug/mL, streptavidin-APC); FL4-MFI falls from about 8700 to about 3800; the table gives no unit, axis in nM
Experimental: as §3

human OX40 on cells [11] = target: T1, human OX40 on cells; test: FACS, blocking of OX40L-His (0.2 µg/mL) binding to hOX40-293 cells
Experimental: Briefly, 293 cells stably transfected with human OX40 were first pre-incubated with varying concentrations of anti-OX40 antibodies. […] The fluorescence intensity of the staining was measured using a FACSCanto II flow cytometer (Becton Dickinson).

human OX40 on cells [12] = target: T1, human OX40 on cells; test: immunohistochemistry, HT1080/huOX40 cells
Excerpt: Fresh, frozen and/or OCT-embedded human tissues were purchased from multiple commercial tissue networks/vendors (Asterand Inc. Detroit, Mich.; Cooperative Human Tissue Network, Philadelphia, Pa.; ProteoGenex Inc, Culver City, Calif.). […] A nonspecific fluoresceinated human IgG1 was used as isotype control antibody. HT1080 cells stably expressing human OX40 (HT1080/huOX40) and hyperplasic human tonsil tissue sections were used as positive control cells and tissues. […] Stained slides were evaluated under a light microscope.

human OX40 on cells [13] = target: T1, human OX40 on cells; test: FACS competition on hOX40-293 cells against biotin-OX40.5 (spike biotOX.5 @ 0.4 ug/mL, streptavidin-APC); FL4-MFI falls from about 8700 to about 2900; the table gives no unit, axis in nM
Experimental: as §3

human OX40 on cells [14] = target: T1, human OX40 on cells; test: FACS competition on HT1080-hOX40 cells against APC-OX40.1 (FL2 MFI); the table gives no unit, axis 'Ab conc nM'
Experimental: as §3

human OX40 on cells [15] = target: T1, human OX40 on cells; test: FACS competition on hOX40-293 cells against biotin-OX40.4 (spike biotOX.4 @ 0.4 ug/mL, streptavidin-APC); partial inhibition, FL4-MFI falls from about 12700 to about 6000; the table gives no unit, axis in nM
Experimental: as §3

human OX40 on cells [16] = target: T1, human OX40 on cells; test: FACS, activated human T cells; mean ± SD, n=2
Experimental: as §2

human OX40 on cells [17] = target: T1, human OX40 on cells; test: FACS competition on hOX40-293 cells: unlabeled antibody first, then PE-labeled L106 (2.5 ug/mL per the text)
Experimental: Briefly, 293 cells stably transfected with human OX40 were first incubated with varying concentrations of unlabeled anti-OX40 antibodies. […] The fluorescence intensity of the staining was measured using a FACSCanto II flow cytometer (Becton Dickinson).

cynomolgus OX40 on cells [18] = target: T2, cynomolgus OX40 on cells; test: FACS, activated cyno T cells; mean ± SD, n=4; mean ± SD of n=4 experiments (Table 8), not the single experiment of FIGS. 12A and 12B
Experimental: as §1

Row | Binder | Proliferation EC50, CD4 T cells + CHO-CD3-CD32A (human OX40 on cells [2]) [nM] | Kd [5] [nM] | koff [5] [s⁻¹] | kon [5] [M⁻¹ s⁻¹] | EC50 (human OX40 on cells [6]) [nM] | EC50 (cynomolgus OX40 on cells [8]) [nM] | EC50 (cynomolgus OX40 on cells [9]) | EC50 (human OX40 on cells [11]) [nM] | also measured
1 | OX40.16 (antibody, human IgG1, kappa, V domains shown) VH: EVQLVQSGGGLVQPGGSLRLSCAGSGFTFSSYAMYWVRQAPGKGLEWVSAIDTDGGTFYADSVRGRFTISRDNAKNSLYLQMNSLRAEDTAVYFCARLGEGYFFDYWGQGTLVTVSS VL: EIVLTQSPATLSLSPGERATLSCRASQSVSSYLAWYQQKPGQAPRLLIYDASNRATGIPARFSGSGSGTDFTLTISSLEPEDFAVYYCQQRSNWPPTFGGGTKVEIKR | 0.017 |  |  |  |  |  |  |  | EC50 (NK92 cell-mediated ADCC, calcein release) (human OX40 on cells [1]): 0.004 µg/mL; IFNγ EC50, CD4 T cells + CHO-CD3-CD32A (human OX40 on cells [2]): 0.044 nM; EC50 (human OX40 on cells [3]): 0.06 nM; EC50 (cynomolgus OX40 on cells [4]): 0.06 nM
2 | 20C1 (antibody, V domains shown, also called 20C1.F2.D1; 20C1.F2) VH: EAQLVQSGGGLVHPGGSLRLSCADSGFTFSSYAMYWVRQAPGKGLEWVSAIDTDGGTFYADSVRGRFTISRDNAKNSLYLQMNGLRAEDMAVYFCARLGEGYFFDYWGQGTLVTVSS VL: EIVLTQSPATLSLSPGERATLSCRASQSVSSYLAWYQQKPGQAPRLLIYDASNRATGIPARFSGSGSGTDFTLTISSLEPEDFAVYYCQQRSNWPPTFGGGTKVEIK | 0.008 | 3.22 | 0.000209 | 64800 | 0.1 | 0.17 | 0.068 nM | 0.34 | IL-2 EC50, SEB PBMC, soluble crosslinker (human OX40 on cells [1]): 1.3 to 2 nM; EC50 (human OX40 on cells [7]): 12.1 nM; EC50 (human OX40 on cells [10]): 6.13 nM
3 | OX40.20 (antibody, human IgG1, kappa, V domains shown) VH: EVQLVQSGGGLVQPGGSLRLSCAGSGFTFSSYAMYWVRQAPGKGLEWVSAIDTSGGTFYADSVRGRFTISRDNAKNSLYLQMNSLRAEDTAVYFCARLGEGYFFDYWGQGTLVTVSS VL: EIVLTQSPATLSLSPGERATLSCRASQSVSSYLAWYQQKPGQAPRLLIYDASNRATGIPARFSGSGSGTDFTLTISSLEPEDFAVYYCQQRSNWPPTFGGGTKVEIKR |  |  |  |  |  |  |  |  | binding result (human OX40 on cells [12]): binds
4 | 20B3 (antibody, V domains shown, also called 20B3.G12.A2; 20B3.G2) VH: EVQLVESGGGLVQPGGSLRLSCAASGFTFSSYDMHWVRQTTGKGLEWVSVIGTAGDTYYPGSVKGRFTISRENAKNSLYLQMNSLRAGDTAVYYCARGGMGNYFDYWGQGTLVTVSS VL: EIVLTQSPATLSLSPGERATLSCRASQSVSSYLAWYQQKPGQAPRLLIYDASNRATGIPARFSGSGSGTDFTLTISSLEPEDFAVYYCQQRSNWPLTFGGGTKVEIK | 0.008 | 3.71 | 0.000201 | 54200 | 0.34 | 1.18 | 1.4 nM and 1 nM to 1.5 nM (2×) | 0.93 | EC50 (human OX40 on cells [13]): 4.54 nM; IC50 (human OX40 on cells [14]): 1.17 nM; EC50 (human OX40 on cells [15]): 3.86 nM
5 | 18E9 (antibody, V domains shown, human mAb from hybridoma; also called 18E9.G5.H4; 18E9.G5) VH: EVQLVQSGGGLVHPGGSLRLSCAHSGFTFTSSAMHWVRQAPGKGLEWISAIGTGGDTYYADSVKGRFTISRDNAKNSLYLQINSLRAEDMAVYYCARDFYDILTGIFDYWGQGTLVTVSS VL: DIQMTQSPSSVSASVGDRVTITCRASQGISSWLAWYQHKPGKAPKLLIYAASSLQSGVPSRFSGSGSGTDFTLTISSLQPEDFATYYCQQANSFPSTFGQGTKVEIK | 0.01 | 2.04 | 0.000139 | 68300 |  |  | 1 to 1.5 nM | 0.48 | EC50 (human OX40 on cells [16]): 0.22 nM; IC50 (read off the curve) (human OX40 on cells [17]): ~1 µg/mL; EC50 (cynomolgus OX40 on cells [18]): 41.7 nM
